Assays:
[1] = test system: mouse tracheal epithelium cells (MTEC); experiment: MTEC apoptosis, Cell Death Detection ELISAplus; assay type: cell-based
Protocol: MTEC culture was performed by following the protocol of You et al. (“Growth and differentiation of mouse tracheal epithelial cells: selection of a proliferative population,” Am J Physiol Lung Cell Mol Physiol, 2002, 283:L 1315-1321) with minor modification. Briefly, tracheas were incubated in 1.5 mg/mL pronase (Roche Molecular Biochemicals) for 18 h at 4° C. Cells were treated with 0.5 mg/mL crude pancreatic DNase I (Sigma-Aldrich) on ice for 5 min. After incubation in tissue culture plates for 3-4 h in 5% CO2 at 37° C., nonadherent cells were incubated in a plate coated with type I rat tail collagen (BD Biosciences) in modified BEBM (Lonza, Md. USA) containing 10 μg/ml insulin, 5 μg/ml transferrin, 25 ng/ml epidermal growth factor, 5 μg/ml epinephrine and 30 μg/ml bovine pituitary extract, 0.5 nM Hydrocortisone, 25 ng/ml hEGF, 15 nM Triiodothyronine, 0.25 μg/ml Gentamicin/amphotericin-B and 0.01 μM retinoic acid in 5% CO2 at 37° C. […]
Apoptotic MTEC death was examined using Cell Death Detection ELISAplus (Roche) according to the manufacturer's instructions and calculated as an index of a fold change over a control. […] Quantitation of histone-associated-DNA-fragments in supernatants of MTEC cultures (5×10^4/mL) treated with PBS, 0.1 ng/mL LPS or 100 nM rFIZZ1 was performed at an absorbance of 405-490 nm.

[2] = test system: BAL cells; experiment: Counts of BAL cells in intranasally challenged mice; assay type: in vivo, mouse; conditions: intranasal once a day×5 days, 100 nM rFIZZ1 or 0.1 ng/ml LPS; vs PBS-treated mice
Protocol: For some experiments, ex vivo TSM tensions of fresh tracheal rings and BAL cell counts were measured at 24 hours after the last treatment of mice receiving an intranasal dose of either PBS, 0.1 ng/m: LPS or 100 nM rFIZZ1 (once a day×5 days).
PBS- and OA-treated mice were sacrificed and their airways lavaged once with 1.0 mL of PBS via tracheal cannulation. An equal volume of BAL from each mouse was collected and centrifuged (1200 rpm, 5 min). Total BAL cells were counted using a hemocytometer. BAL cells ([…]) collected from each sample were applied to a glass slide using a cytospin (800 rpm, 8 min) and then the slide was stained with Hema 3 Stain Set (Fisher Scientific) for the differential count of cells. The relative proportion of different cells counted from 300 cells/slide was factored to the number of total BAL cells collected in each group.

B1: rFIZZ1: recombinant FIZZ1 (Leinco Technologies), mouse FIZZ1 protein, resistin-like molecule-α (protein, listed as Mus musculus)
chain: MKTTTCSLLICISLLQLMVPVNTDETIEIIVENKVKELLANIPANYPSTVTKTLSCTSVKTMNRWASCPAGMTATGCACGFACGSWEIQSGDTCNCLCLLV
modifications: (1)..(101) Murine FIZZ1 polypeptide
MTEC apoptosis (apoptosis index) ([1]; 100 nM rFIZZ1, all time points, compared to LPS treatment, N=3): significant increased | start of increase in cell death, time of incubation ([1]; FIZZ1-treated MTEC): 3 h | number of BAL cells [2]: increase

Reference: US20090274696A1, “METHODS FOR TREATING INFLAMMATION” (WYETH, priority 2008, published 2009)
